According to the supplement of paper PMC12764529:
± gives the half width of the 95% confidence interval.

What was measured:
[1] = folding stability dG unfold from trypsin proteolysis; higher = more stable
Outline: (§1)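 Unfolding free energy was derived, per protease or combined, by relating Bayesian-fitted K50 values from sequencing counts to a sequence-predicted unfolded-state K50 and a shared folded-state K50. The underlying digests exposed cysteine-free mini-proteins under 80 residues, in a PA-tagged cDNA display construct, to trypsin and chymotrypsin at 11 threefold-diluted concentrations and to a no-protease condition. A filter kept only designs with AlphaFold2 dimer inter-PAE above 15.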

[2] = folding stability dG unfold (combined trypsin and chymotrypsin); higher = more stable
Outline: as §1

[3] = folding stability dG unfold from chymotrypsin proteolysis; higher = more stable
Outline: as §1

Row | Sequence | folding stability dG unfold [1] [kcal/mol] | folding stability dG unfold [2] [kcal/mol] | folding stability dG unfold [3] [kcal/mol]
1 | SAGGSAGGSAGGKTYRVKVRIYNPETGEVLEIEVEVETDTEEEAKRAAENLARELLKKSSAGGSAGGSAGGS [r10_863_TrROS_Hall] | 2.69 ± 0.045 | 3.47 ± 0.12 | 3.7 ± 0.058
2 | SAGGSAGGSAGNLKPVSGGGVLKVEVKDPNTDKKETYLVPPNKPDVVLELAKDGYEVEVSSAGGSAGGSAGG [r11_1006_TrMRF] | 0.938 ± 0.11 | 0.639 ± 0.14 | 0.227 ± 0.14
3 | SGMSMAKDAKPIYIEYRDPNGKSYRVTEVKVNEDGTLTITIEYPDSIKTYTLPPNANYPLSSSLILSTVESA [r9_993_JUSTAS] | 1.4 ± 0.076 | 1.45 ± 0.14 | 1.43 ± 0.13
4 | SAGGSAGGSAGGSVPSVKLPKVGLKTDPVSSVLDFGEEKGDPVSVSIHLTLFLPDGTILLSAGGSAGGSAGG [r11_890_JUSTAS] | 0.161 ± 0.082 | 0.672 ± 0.17 | 0.881 ± 0.12
5 | SAGGSAGGSAKTVVINIKDLKLSKDGKLTVEEIKKRIKELLKKKGIKKVTVKTVEELLKALKSAGGSAGGSA [r18_72_TrROS_Hall] | 0.898 ± 0.062 | 1.26 ± 0.074 | 1.41 ± 0.086
6 | SAGGSAGGSMTITKRSDGTIEVEIEISPEHPDVSPEEVKERVKKELEKKGIKTPVKITVKPVPESAGGSAGG [r6_480_JUSTAS] | 1.35 ± 0.044 | 1.92 ± 0.19 | 2.27 ± 0.14
7 | SAGGSAGGSAGGSSMSSGPGRLSITTSTVDTGSFFKPGGEVEGSKTTTVTVTTLLPPSTPSAGGSAGGSAGG [r7_614_JUSTAS] | 0.21 ± 0.025 | 0.908 ± 0.054 | 1.27 ± 0.067
8 | SEMSVEEILKKIAEELLKKNPNKEVTKEIEIEFEKPDPEGKRLLKEKVKATIKVTPDKIEILSESREILLSA [r9_361_JUSTAS] | 1.52 ± 0.066 | 1.31 ± 0.18 | 1.07 ± 0.054
9 | SAGGSAGGSNNPDKKKKPRYVVIQIELKWYPNPNGQWSPELEITATVPAGDLEDKDDAIKDIISAGGSAGGS [r12_933_TrROS] | 2.13 ± 0.098 | 1.68 ± 0.17 | 1.29 ± 0.064
10 | SPKIHIFIKGSIEEAVDFIRKFFPGLPIHVFDDPEQAEERAKNGDIVIAIGDEEYANRYAKKYNVPVIYISA [r9_380_TrROS] | 2.52 ± 0.062 | 3.12 ± 0.053 | 3.338 ± 0.018
11 | SAGGSAGGSAGGMEIIEKEETLDEETLKKLEEEGVPKSEATVKVTEVIYKEEYPEEGLKSAGGSAGGSAGGS [r10_1149_JUSTAS] | 0.359 ± 0.072 | -0.137 ± 0.34 | -0.692 ± 0.28
12 | SAGGSAGGSAGGSEKPPIKLKIKVYDPETNELVSEVEVELEPGQSLEELLKKFDVVEIESAGGSAGGSAGGS [r4_187_TrROS_Hall] | 1.71 ± 0.1 | 2.66 ± 0.12 | 2.94 ± 0.064
13 | SAGGSAMTAEEVEEKVREAFAALGVEAEVEVRESPEGGLEVLVVTGEDADLEEVKAALEELFGTDISAGGSA [r15_807_TrMRF] | 2.51 ± 0.12 | 2.48 ± 0.078 | 2.5 ± 0.064
14 | SAGGGMLLTTTQTITLPNGTLLTVTSTFTLTPPAVPVPVVELDESSIAEYDPATGILTDPSVPTPIPVPSAG [r5_807_JUSTAS] | 0.733 ± 0.066 | 0.766 ± 0.1 | 0.596 ± 0.11
15 | SGMMRTIVLKIPIEEARKLLGDPNKPVSEEELKALVEKLAKEKGLDVEEIKVEKLPDGTYVVTVLVPDLGSA [r9_52_JUSTAS] | 3.06 ± 0.12 | 3.81 ± 0.099 | 4.12 ± 0.076
16 | SAGGSAGGSAGGKVTVTPDGRLVIEKPKVTVEPVEVEEVEVELELKLSPEELEELLKKLSAGGSAGGSAGGS [r10_1096_TrROS_Hall] | 0.51 ± 0.17 | 0.554 ± 0.19 | 0.745 ± 0.044
17 | SAGGSAGGSAGGKMLLIKITTKDGREFTLEISEEEAKKLAEELKKKFPNQKIEVEIVPLKSAGGSAGGSAGG [r7_349_TrROS_Hall] | 3.21 ± 0.18 | 3.21 ± 0.14 | 3.16 ± 0.073
18 | SAGGSAIKLPPGEEYTIIMRNPQNGRPFKVPIKRVDPGQIQIEIENPKNGEKQKFTIPANDIEIVKSAGGSA [r15_381_TrROS] | 0.0718 ± 0.074 | -0.194 ± 0.16 | -0.896 ± 0.8
19 | SAGGSAGGSAGKKYKVVEVKENKDGTVELVVENENGEKKKITLSKEELDKLKAGDTVELKSAGGSAGGSAGG [r11_943_TrROS_Hall] | 2.01 ± 0.11 | 2.47 ± 0.14 | 2.7 ± 0.057
20 | SAGGNPSASPVVTETELPDGSRVTTTTYPSGTTTRTVTDLVTGKKTLVTTTTTPGTGATTTTTTPVPPSAGG [r13_822_JUSTAS] | 0.151 ± 0.019 | 1.08 ± 0.03 | 1.51 ± 0.022
21 | SAMKLTTLSESSDPATGVRYLTVAIPSSQDDLIKEIAEELEKKGVKATILTPNVPAGSSVTIKLEFKGKSAG [r14_354_JUSTAS] | 0.109 ± 0.17 | 0.475 ± 0.17 | 0.66 ± 0.16

Row | Sequence | folding stability dG unfold [1] [kcal/mol] | folding stability dG unfold [2] [kcal/mol] | folding stability dG unfold [3] [kcal/mol]
22 | SAGGSAMTIEIVVPTLEAIEKLAEETGAEVVEVRFFEEEGLVVVRIKVPESKEELLEKIREALGLESAGGSA [r15_118_TrROS_Hall] | 2.17 ± 0.069 | 2.11 ± 0.1 | 2.1 ± 0.092
23 | SAGGSAGGSSIGRTEYIPEENLIVREEPETGLTIITKKPPNGPNIVYTIEPETGEKTVEESLISAGGSAGGS [r12_55_JUSTAS] | 0.445 ± 0.067 | 0.292 ± 0.2 | -0.0944 ± 0.22
24 | SAGGASFSLSEGYDPSLGKTFTRETEAPEVPVPPVTVVPLSEIGRLKAEGVPPSWTVDPETGTVTVTSAGGS [r16_194_JUSTAS] | -0.647 ± 0.19 | 0.258 ± 0.059 | 0.564 ± 0.072
25 | SAGKPKVKVKKITVTITYDPETGTITIEATIEIDGKTIKLTITITLPEELRNLKPGDTITIEITIIIEPSAG [r5_714_TrROS_Hall] | 3.4 ± 0.17 | 3.15 ± 0.12 | 2.86 ± 0.13
26 | SAGMTLTVVLPVPEEMTEEEAAEILRAYVDAVVAELLAGDAVAVPKEIVVDKETGTAVAKVELFIPPDLSAG [r5_146_TrMRF] | 2.59 ± 0.064 | 2.58 ± 0.068 | 2.56 ± 0.027
27 | SAGGSAGGSAGGSKETVKIAIKVKPGEKEITIEIKGKKYKVKVEEKDGLLYLTVSKEDLSAGGSAGGSAGGS [r4_430_TrROS_Hall] | 4.4 ± 0.54 | 3.34 ± 0.32 | 3.44 ± 0.22
28 | SAGGSAGGSAGMKVKTDPSSGPTVNKAYLENGTLILTTVTYDPSNGTTSTTTTVVPLSLLSAGGSAGGSAGG [r17_287_JUSTAS] | 0.433 ± 0.12 | 0.823 ± 0.21 | 1.23 ± 0.22
29 | SAGGSMSIPLKTEEDVKKAVEYIKQKLLEEGAPEGLKIDKVEVTKLPDGTYKITITFPNKTFELVGSAGGSA [r2_120_JUSTAS] | 2.56 ± 0.052 | 2.64 ± 0.079 | 2.64 ± 0.047
30 | SAGGMFKVYEVTGKDAKVTIVEAPLPDGGKLVVVEVWEGGKPVKPFLVPVAELEEIAKAIGIKPEELKSAGG [r13_108_TrMRF] | 1.05 ± 0.027 | 1.58 ± 0.14 | 1.9 ± 0.082
31 | SAGGSAGGSAGMPLYIIEVEKEDGSKITITIPENMTEEEIKKIAEELGIKKVEIIKKEDLSAGGSAGGSAGG [r11_490_TrROS_Hall] | 1.91 ± 0.061 | 1.84 ± 0.087 | 1.8 ± 0.053
32 | SAGGSMVVVVKLKDGKKIELSVEELKKLAEELGLEPEEEDKEERLERIAKALAEKLGLEVEKVEVLSAGGSA [r2_83_TrROS_Hall] | 4.09 ± 0.29 | 3.33 ± 0.35 | 2.74 ± 0.22
33 | SAGGSAMKEIEINGYKVRIVKIDEKTGKITIYLYPNASEEMKEKVAELLKELGFEIEVEEVSPEELSAGGSA [r15_570_TrROS_Hall] | 3.4 ± 0.28 | 3.44 ± 0.16 | 3.53 ± 0.14
34 | SAGGSYLDEVREKILKEYPLKPGEPKEIEITVPLPSGRTVKIKIPVTVDPKTGKVEAKFEVLEETKESAGGS [r16_634_JUSTAS] | 0.395 ± 0.033 | 0.934 ± 0.074 | 1.22 ± 0.028
35 | SAGGSAGGSAKVKAEIEYDPATGKITIKLITEDERGGKTEEAEITIPIPIPAPPAPPADVDKSAGGSAGGSA [r18_361_TrMRF] | -0.0238 ± 0.12 | 1.27 ± 0.12 | 1.69 ± 0.15
36 | SAGGSAGGSPNPKNVKIYLVALDPDKPEVVAEASFNITVDTEEELEAILKELVPLFPGAKVFASAGGSAGGS [r12_1043_TrMRF] | 0.853 ± 0.086 | 1.13 ± 0.1 | 1.25 ± 0.12
37 | SMKPGELVLVTETETRTFTVTPEDLPPGWKVKEVKVTVTRVALFRVTPDGRVELVEEVTSVEIEVTLEPESA [r9_747_TrROS_Hall] | 4.39 ± 0.42 | 4.52 ± 0.22 | 4.54 ± 0.1
38 | SAGGSAGGSAGGIWITMRPDNPDEFIDALRKKGKIRIVEVEPKNGNVIMRVTLDGQPLTSAGGSAGGSAGGS [r10_695_TrROS] | 0.0442 ± 0.14 | 0.368 ± 0.088 | 0.53 ± 0.11
39 | SAGGSPNFRIHIEGPEGKTLQYPVDPGFNKPDIQDWLQELGNIEIDQHPNDGWITIRIPKDALDQFSAGGSA [r2_164_TrROS] | 0.226 ± 0.12 | 0.161 ± 0.27 | 0.0882 ± 0.21
40 | SAGGSAGGSAGGMEVKTVEDPKGLTVEVSPPVGTATTVYGDETVTHTLSPSATVALEPASAGGSAGGSAGGS [r10_637_JUSTAS] | -0.0233 ± 0.042 | 0.31 ± 0.1 | 0.435 ± 0.033
41 | SAGGSAGGSMETVVTVPLPDGRTLTITRYPDGTVTVTYPDGTPVATRPVAPDTSDEAVVAALASAGGSAGGS [r12_990_JUSTAS] | 0.522 ± 0.016 | 1.54 ± 0.037 | 1.83 ± 0.023
